# Values of other authors, collected in PMC12865133, “Macrocyclic Molecular Glues for the 14‐3‐3/ChREBP Interaction: Affinity and Cooperativity in an Inverse Relationship” (Angewandte Chemie (International Ed. in English), 2025).
# Target: ChREBP (Homo sapiens) (UniProt Q9NP71)
# Details: cited from earlier work
# 14-3-3, sequence (P31946 2-246): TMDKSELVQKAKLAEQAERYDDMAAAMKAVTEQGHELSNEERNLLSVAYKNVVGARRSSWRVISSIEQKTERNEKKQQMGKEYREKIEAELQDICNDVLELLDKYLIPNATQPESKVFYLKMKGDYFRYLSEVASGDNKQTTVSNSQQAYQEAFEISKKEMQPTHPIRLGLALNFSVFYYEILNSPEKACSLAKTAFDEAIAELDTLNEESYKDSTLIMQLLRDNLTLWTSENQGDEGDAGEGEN
# ChREBP (Homo sapiens), sequence (Q9NP71 whole entry): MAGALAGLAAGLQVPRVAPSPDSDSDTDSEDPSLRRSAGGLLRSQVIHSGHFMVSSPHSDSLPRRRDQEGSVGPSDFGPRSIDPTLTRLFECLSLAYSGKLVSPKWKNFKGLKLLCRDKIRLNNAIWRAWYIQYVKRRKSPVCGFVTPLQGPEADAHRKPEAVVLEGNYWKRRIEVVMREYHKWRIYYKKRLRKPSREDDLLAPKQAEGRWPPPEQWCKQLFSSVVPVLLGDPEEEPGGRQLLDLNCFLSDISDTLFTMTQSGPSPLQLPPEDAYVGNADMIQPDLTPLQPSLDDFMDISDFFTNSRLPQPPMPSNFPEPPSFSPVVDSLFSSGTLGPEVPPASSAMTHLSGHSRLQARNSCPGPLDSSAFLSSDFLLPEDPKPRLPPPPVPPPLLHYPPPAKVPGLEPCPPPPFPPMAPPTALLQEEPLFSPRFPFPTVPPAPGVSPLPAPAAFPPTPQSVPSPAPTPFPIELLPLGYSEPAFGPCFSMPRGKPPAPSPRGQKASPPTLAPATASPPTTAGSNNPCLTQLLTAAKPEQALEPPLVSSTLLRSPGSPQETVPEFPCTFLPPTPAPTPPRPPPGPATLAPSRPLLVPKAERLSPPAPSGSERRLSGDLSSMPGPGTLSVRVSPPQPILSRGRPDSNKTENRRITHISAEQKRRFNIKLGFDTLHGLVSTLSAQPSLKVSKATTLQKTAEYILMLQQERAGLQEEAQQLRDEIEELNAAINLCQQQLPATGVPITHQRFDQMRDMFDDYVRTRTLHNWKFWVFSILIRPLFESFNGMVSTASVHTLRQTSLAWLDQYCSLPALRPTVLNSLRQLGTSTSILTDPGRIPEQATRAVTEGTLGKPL
substance,measurement,value
14-3-3 (from UniProt P31946),Kd,1.5 µM
